Measurements: patent US20110218157A1

How the values were obtained:
[1] = biological target: recombinant TNF-α (Sigma-Aldrich); assay: reverse ELISA: PAP-IC without peptide on TNF-α-coated plate
FcγIIb = FcγIIb (UniProt P31994); assay: reverse ELISA: PAP-IC without peptide on FcγIIb-coated plate
FcγIIIa = FcγIIIa (UniProt P08637); assay: reverse ELISA: PAP-IC without peptide on FcγIIIa-coated plate
FcγIIa (R131 allele) = FcγIIa (R131 allele) (UniProt P12318); assay: reverse ELISA: PAP-IC without peptide on FcγIIa (R131)-coated plate

recombinant TNF-α (Sigma-Aldrich), sequence (P01375 77-233): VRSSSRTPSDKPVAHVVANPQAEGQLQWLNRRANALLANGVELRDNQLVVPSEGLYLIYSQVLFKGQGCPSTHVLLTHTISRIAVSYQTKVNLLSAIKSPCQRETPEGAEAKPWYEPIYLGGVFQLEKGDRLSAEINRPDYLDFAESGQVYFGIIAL

## peroxidase-rabbit anti-peroxidase IgG immune complex (PAP complex) (from UniProt P00433 31-338)
[1]
  OD405: 3.18 OD405
FcγIIb
  OD405: 1.39 OD405
FcγIIIa
  OD405: 1.59 OD405
FcγIIa (R131 allele)
  OD405: 1.6 OD405
